The results in this text go back to PMC2852419, “Identification of SOX9 Interaction Sites in the Genome of Chondrocytes”.

For the series, the target named is SOX9 (Homo sapiens, UniProt P48436 1-509). As to the kind of experiment: EMSA; EMSA with recombinant human SOX9 and 32P probes as in cited ref 67; buffer, salt, pH and temperature not given. Particulars: protein: recombinant; chain copies: 2; label: 32P-dCTP Klenow fill-in. (In EMSA bound probe runs differently from free probe, usually more slowly.)
Sequence of SOX9 (P48436 whole entry): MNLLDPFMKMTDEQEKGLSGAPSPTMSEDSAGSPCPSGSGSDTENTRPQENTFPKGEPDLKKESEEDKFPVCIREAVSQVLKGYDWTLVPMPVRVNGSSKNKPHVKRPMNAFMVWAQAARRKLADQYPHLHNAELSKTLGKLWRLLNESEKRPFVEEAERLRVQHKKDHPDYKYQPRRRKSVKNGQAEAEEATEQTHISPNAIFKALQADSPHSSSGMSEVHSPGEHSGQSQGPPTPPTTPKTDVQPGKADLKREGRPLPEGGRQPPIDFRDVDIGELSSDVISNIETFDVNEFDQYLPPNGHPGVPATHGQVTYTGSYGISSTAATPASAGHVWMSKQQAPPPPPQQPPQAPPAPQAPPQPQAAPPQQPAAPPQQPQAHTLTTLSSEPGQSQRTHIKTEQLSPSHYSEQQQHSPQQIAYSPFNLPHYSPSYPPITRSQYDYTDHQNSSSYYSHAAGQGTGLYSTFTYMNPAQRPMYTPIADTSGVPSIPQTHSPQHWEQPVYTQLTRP

B1: Col2a1 intron 6 mutant (dsDNA)
DNA 1: GGCAGATAGCTGTTTTCCTTTTCGACAGAAACCCAG
DNA 2: CTGGGTTTCTGTCGAAAAGGAAAACAGCTATCTGCC
Take B1: the binding result was “no binding”.

B2: Col2a1 intron 6 (human) (dsDNA)
DNA 1: GGCAGGTAACTGAGGACTTTCTTTATAGAATCCCAG
DNA 2: CTGGGATTCTATAAAGAAAGTCCTCAGTTACCTGCC
Take B2: the binding result was “binds”.
